The text below walks through data of ChEMBL document CHEMBL1142227, “Structural basis for the high all-trans-retinaldehyde reductase activity of the tumor marker AKR1B10” (Proc Natl Acad Sci U S A, 2007).

Data set [1] has as its system CC1=C(/C=C/C(C)=C/C=C/C(C)=C/C=O)C(C)(C)CCC1. In words: (§1) Ratio of Kcat to Km for human wild type AKR1B10.
Data set [2] deals with CC1=C(/C=C/C(C)=C\C=C\C(C)=C\C=O)C(C)(C)CCC1. The data set is described as §1.
Data set [3] relates to O=CC(O)CO. The data set is described as §1.
Data set [4] has as its system CC1=C(/C=C/C(C)=C/C=C/C(C)=C/C=O)C(C)(C)CCC1. In words: (§2) Activity of human wild type AKR1B10 by Tween 80 / spectrophotometer method.
Data set [5] has as its system CC1=C(/C=C/C(C)=C/C=C/C(C)=C/C=O)C(C)(C)C[C@@H](O)C1. Described as §2.
Data set [6] concerns CC1=C(/C=C/C(C)=C/C=C/C(C)=C/C=O)C(C)(C)CCC1. The data set can be described thus: (§3) Activity of human wild type AKR1B10 by BSA/HPLC method.
Data set [7] relates to CC1=C(/C=C/C(C)=C\C=C\C(C)=C\C=O)C(C)(C)CCC1. The description is as §3.
For data set [8], the system named is O=CC(O)CO. Described as §3.
Data set [9] concerns CC1=C(/C=C/C(C)=C/C=C/C(C)=C/C=O)C(C)(C)CCC1. The data set can be described thus: (§4) Activity of human AKR1B1 by Tween 80 / spectrophotometer method.
Data set [10] concerns CC1=C(/C=C/C(C)=C/C=C/C(C)=C/C=O)C(C)(C)C[C@@H](O)C1. Described as §4.
For data set [11], the system named is CC1=C(/C=C/C(C)=C/C=C/C(C)=C/C=O)C(C)(C)CCC1. The data set can be described thus: (§5) Activity of human AKR1B1 by BSA/HPLC method.
The subject of data set [12] is CC1=C(/C=C/C(C)=C\C=C\C(C)=C\C=O)C(C)(C)CCC1. The data set is described as §5.
Data set [13] has as its system O=CC(O)CO. The description is as §5.
Data set [14] deals with CC1=C(/C=C/C(C)=C/C=C/C(C)=C/C=O)C(C)(C)CCC1. The data set can be described thus: (§6) Ratio of Kcat to Km for human AKR1B1.
In data set [15] the test system is CC1=C(/C=C/C(C)=C\C=C\C(C)=C\C=O)C(C)(C)CCC1. Described as §6.
For data set [16], the system named is O=CC(O)CO. Described as §6.
Data set [17] addresses Aldo-keto reductase family 1 member B10 (Homo sapiens) (UniProt O60218). In words: Inhibition of retinaldehyde reductase activity of human AKR1B10 expressed in COS7 cells at 1 uM relative to control. It counts as cell-based. Also noted: scale not given: the % may be the effect or the level left. The following applies: COS-7.
Data set [18] relates to CC1=C(/C=C/C(C)=C/C=C/C(C)=C/C=O)C(C)(C)CCC1. In words: (§7) Activity of human AKR1B10 K125L mutant by Tween 80 / spectrophotometer method.
Data set [19] concerns CC1=C(/C=C/C(C)=C/C=C/C(C)=C/C=O)C(C)(C)C[C@@H](O)C1. The description is as §7.
Data set [20] relates to CC1=C(/C=C/C(C)=C/C=C/C(C)=C/C=O)C(C)(C)CCC1. In words: (§8) Ratio of Kcat to Km for human AKR1B10 K125L mutant.
Data set [21] deals with CC1=C(/C=C/C(C)=C\C=C\C(C)=C\C=O)C(C)(C)CCC1. Described as §8.
Data set [22] relates to O=CC(O)CO. The data set is described as §8.
The subject of data set [23] is CC1=C(/C=C/C(C)=C/C=C/C(C)=C/C=O)C(C)(C)CCC1. In words: (§9) Activity of human AKR1B10 K125L mutant by BSA/HPLC method.
Data set [24] relates to CC1=C(/C=C/C(C)=C\C=C\C(C)=C\C=O)C(C)(C)CCC1. The data set is described as §9.
In data set [25] the test system is O=CC(O)CO. Described as §9.
Data set [26] has as its system CC1=C(/C=C/C(C)=C/C=C/C(C)=C/C=O)C(C)(C)CCC1. The data set can be described thus: (§10) Activity of human AKR1B10 V301L mutant by BSA/HPLC method.
The test system of data set [27] is CC1=C(/C=C/C(C)=C\C=C\C(C)=C\C=O)C(C)(C)CCC1. The description is as §10.
Data set [28] relates to O=CC(O)CO. The data set is described as §10.
Data set [29] relates to CC1=C(/C=C/C(C)=C/C=C/C(C)=C/C=O)C(C)(C)CCC1. The data set can be described thus: (§11) Ratio of Kcat to Km for human AKR1B10 V301L mutant.
In data set [30] the test system is CC1=C(/C=C/C(C)=C\C=C\C(C)=C\C=O)C(C)(C)CCC1. Described as §11.
The subject of data set [31] is O=CC(O)CO. Described as §11.
In data set [32] the test system is CC1=C(/C=C/C(C)=C/C=C/C(C)=C/C=O)C(C)(C)CCC1. The data set can be described thus: (§12) Activity of human AKR1B10 K125L/V301L mutant by BSA/HPLC method.
In data set [33] the test system is O=CC(O)CO. Described as §12.
Data set [34] deals with CC1=C(/C=C/C(C)=C/C=C/C(C)=C/C=O)C(C)(C)CCC1. The data set can be described thus: (§13) Ratio of Kcat to Km for human AKR1B10 K125L/V301L mutant.
Data set [35] relates to O=CC(O)CO. Described as §13.

One may read the kcat/Km as the second-order rate constant that governs catalysis at low substrate concentration. Usually kcat stands for the maximal rate divided by the concentration of active sites. The term Km denotes the substrate concentration at which the rate is half of its maximum.

Chain of Aldo-keto reductase family 1 member B10 (Homo sapiens), O60218 K125L (O60218 whole entry K125L): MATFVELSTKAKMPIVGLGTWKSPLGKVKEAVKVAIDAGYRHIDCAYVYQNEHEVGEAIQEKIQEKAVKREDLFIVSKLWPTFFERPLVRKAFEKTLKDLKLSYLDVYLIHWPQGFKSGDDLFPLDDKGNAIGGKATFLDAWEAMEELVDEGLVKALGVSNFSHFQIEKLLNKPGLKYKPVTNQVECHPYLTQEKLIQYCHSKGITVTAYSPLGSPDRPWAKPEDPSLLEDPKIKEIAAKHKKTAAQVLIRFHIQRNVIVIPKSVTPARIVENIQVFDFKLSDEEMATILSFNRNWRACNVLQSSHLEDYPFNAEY
Chain of Aldo-keto reductase family 1 member B10 (Homo sapiens), O60218 V301L (O60218 whole entry V301L): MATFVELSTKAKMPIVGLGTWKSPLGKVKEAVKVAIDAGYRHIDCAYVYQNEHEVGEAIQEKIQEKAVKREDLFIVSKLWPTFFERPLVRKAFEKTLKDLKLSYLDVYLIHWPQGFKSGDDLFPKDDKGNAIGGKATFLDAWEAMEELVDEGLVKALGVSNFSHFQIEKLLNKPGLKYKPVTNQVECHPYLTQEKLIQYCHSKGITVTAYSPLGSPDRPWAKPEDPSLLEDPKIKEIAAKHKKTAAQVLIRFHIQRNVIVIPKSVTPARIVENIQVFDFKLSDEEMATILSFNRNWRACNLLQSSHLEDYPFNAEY
Chain of Aldo-keto reductase family 1 member B10 (Homo sapiens), O60218 (O60218 whole entry): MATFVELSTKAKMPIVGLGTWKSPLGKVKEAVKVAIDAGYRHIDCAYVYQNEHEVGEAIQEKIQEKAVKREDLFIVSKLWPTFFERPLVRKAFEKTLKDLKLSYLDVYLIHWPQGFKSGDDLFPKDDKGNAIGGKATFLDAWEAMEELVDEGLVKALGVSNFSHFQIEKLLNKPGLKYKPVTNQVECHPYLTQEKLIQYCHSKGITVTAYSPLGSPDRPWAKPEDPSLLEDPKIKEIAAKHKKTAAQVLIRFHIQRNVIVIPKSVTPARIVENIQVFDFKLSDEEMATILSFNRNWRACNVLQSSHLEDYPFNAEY
Chain of Aldo-keto reductase family 1 member B10 (Homo sapiens), O60218 K125L,V301L (O60218 whole entry K125L/V301L): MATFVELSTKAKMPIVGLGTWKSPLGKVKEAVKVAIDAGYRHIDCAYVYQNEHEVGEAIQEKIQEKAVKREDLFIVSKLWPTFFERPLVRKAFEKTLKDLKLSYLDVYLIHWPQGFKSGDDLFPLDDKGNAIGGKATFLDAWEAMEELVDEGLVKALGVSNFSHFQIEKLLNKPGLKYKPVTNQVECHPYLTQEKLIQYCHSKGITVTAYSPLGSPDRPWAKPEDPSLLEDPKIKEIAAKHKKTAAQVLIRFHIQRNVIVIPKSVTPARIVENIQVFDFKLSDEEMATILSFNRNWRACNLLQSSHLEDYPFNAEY
Chain of Aldo-keto reductase family 1 member B10 (Homo sapiens) (O60218 whole entry, looked up): as the sequence (O60218 whole entry) above

For “Aldo-keto reductase family 1 member B10 (Homo sapiens), O60218”, the kcat/Km turned out to be 750000 M⁻¹ s⁻¹ in data set [1], 21700 M⁻¹ s⁻¹ in [2] and 100 M⁻¹ s⁻¹ in the data set on O=CC(O)CO [3]. Further, the kcat in data set [4] worked out at 0.297 s⁻¹; in [5] it was 0.288 s⁻¹; in data set [6], 0.45 s⁻¹; in data set [7], 0.015 s⁻¹; in the data set on O=CC(O)CO [8], 0.583 s⁻¹. Also, the figures for the Michaelis-Menten constant (Km) (in data set [6]; in data set [7]; in the data set on O=CC(O)CO [8]) were 0.6 µM, 0.7 µM and 6000 µM, respectively.
“Aldo-keto reductase family 1 member B1 (Homo sapiens) (from UniProt P15121)”: the kcat in data set [9] was found to be 0.00617 s⁻¹; in data set [10], 0.0967 s⁻¹; in [11], 0.00583 s⁻¹; in data set [12], 0.0117 s⁻¹; with O=CC(O)CO [13], 0.517 s⁻¹. For the same compound, the figures for the Km (in data set [11]; in data set [12]; in the data set with O=CC(O)CO [13]) were 1.1 µM, 0.4 µM and 50 µM, respectively. In addition, the kcat/Km in data set [14] worked out at 5330 M⁻¹ s⁻¹; in data set [15], 25000 M⁻¹ s⁻¹; in the data set with O=CC(O)CO [16] it was 11000 M⁻¹ s⁻¹.
With `COc1ccc2c(C(=S)N(C)CC(=O)O)cccc2c1C(F)(F)F`, in [17], the Activity was found to be 50%.
Take “Aldo-keto reductase family 1 member B10 (Homo sapiens), O60218 K125L”: the catalytic constant (kcat) in [18] turned out to be 0.0733 s⁻¹; in data set [19], 0.308 s⁻¹; in [23] it was 0.0333 s⁻¹; in data set [24], 0.015 s⁻¹; in the data set on O=CC(O)CO [25] it was 0.593 s⁻¹. Further, the specificity constant (kcat/Km) in data set [20] stood at 218000 M⁻¹ s⁻¹; in [21], 21700 M⁻¹ s⁻¹; with O=CC(O)CO [22], 117 M⁻¹ s⁻¹. The Michaelis-Menten constant (Km) in data set [23] is 0.15 µM; in data set [24] it was 0.7 µM; with O=CC(O)CO [25], 5200 µM.
Regarding “Aldo-keto reductase family 1 member B10 (Homo sapiens), O60218 V301L”, the Michaelis constant (Km) in data set [26] stood at 0.6 µM; in data set [27], 0.3 µM; with O=CC(O)CO [28], 6000 µM. Moreover, the figures for the kcat (in data set [26]; in [27]; with O=CC(O)CO [28]) were 0.128 s⁻¹, 0.01 s⁻¹ and 0.683 s⁻¹, respectively. Moreover, the kcat/Km in [29] turned out to be 212000 M⁻¹ s⁻¹; in data set [30], 30000 M⁻¹ s⁻¹; with O=CC(O)CO [31] it was 117 M⁻¹ s⁻¹.
Take “Aldo-keto reductase family 1 member B10 (Homo sapiens), O60218 K125L,V301L”: the Km in data set [32] amounted to 1 µM; in the data set with O=CC(O)CO [33], 7300 µM. For the same compound, the results for the kcat (in data set [32]; in the data set on O=CC(O)CO [33]) were 0.0583 s⁻¹ and 0.59 s⁻¹, respectively. For the same compound, the catalytic efficiency (kcat/Km) in data set [34] stood at 58300 M⁻¹ s⁻¹; in the data set on O=CC(O)CO [35], 81.7 M⁻¹ s⁻¹.
